B1: NET1 (parent)
chain: RVRPLARVTSLANLISPVRNGAVR

Variants of: B1
Assay: protein stability index of a GFP-peptide fusion (GPS, HEK-293T) (PSI 1-6); higher = more stable
Details: c terminus: a fixed tail appended
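Further: lentivirally expressed fusions sorted by FACS into six bins by GFP to DsRed ratio, PSI derived from sequencing read proportions per bin multiplied by bin number.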

Point of comparison: RVRPLARVTSLANLHSPVRNGAVR, protein stability index 4.02. Against it:
- RVRPLARVTSLANRISPVRNGAVR — lower, 3.34
- RVRPLARVTSLANMISPVRNGAVR — lower, 2.61
- RVRPLARVTSLANVISPVRNGAVR — lower, 2.72
- RVRPLARVTSLANYISPVRNGAVR — lower, 3.17
- RVRPLARVTSLANWISPVRNGAVR — higher, 4.15
- RVRPLARVTSLANHISPVRNGAVR — lower, 3.63
- RVRPLARVTSLANTISPVRNGAVR — lower, 3.67
- RVRPLARVTSLANQISPVRNGAVR — lower, 3.02
- RVRPLARVTSLANIISPVRNGAVR — lower, 3.03
- RVRPLARVTSLANFISPVRNGAVR — lower, 2.65
- RVRPLARVTSLANCISPVRNGAVR — lower, 1.66
- RVRPLARVTSLANSISPVRNGAVR — lower, 3.15
- RVRPLARVTSLANEISPVRNGAVR — lower, 3.16
- RVRPLARVTSLANNISPVRNGAVR — lower, 3.84
- RVRPLARVTSLANKISPVRNGAVR — lower, 3.35
- RVRPLARVTSLANDISPVRNGAVR — higher, 4.39
- RVRPLARVTSLANAISPVRNGAVR — lower, 3.15
- RVRPLARVTSLANGISPVRNGAVR — lower, 3.24
- RVRPLARVTSLANPISPVRNGAVR — lower, 3.76
- RVRPLARVQSLANLISPVRNGAVR — lower, 3.81
- RVRPLARVESLANLISPVRNGAVR — lower, 2.87
- RVRPLARVNSLANLISPVRNGAVR — lower, 3.38
- RVRPLARVISLANLISPVRNGAVR — lower, 1.84
- RVRPLARVMSLANLISPVRNGAVR — lower, 2.66
- RVRPLARVDSLANLISPVRNGAVR — lower, 3.73
- RVRPLARVLSLANLISPVRNGAVR — lower, 2.09
- RVRPLARVASLANLISPVRNGAVR — lower, 2.81
- RVRPLARVSSLANLISPVRNGAVR — lower, 3.45
- RVRPLARVPSLANLISPVRNGAVR — lower, 2.74
- RVRPLARVVSLANLISPVRNGAVR — lower, 2.96
- RVRPLARVKSLANLISPVRNGAVR — lower, 3.69
- RVRPLARVGSLANLISPVRNGAVR — lower, 3.68
- RVRPLARVRSLANLISPVRNGAVR — lower, 2.76
- RVRPLARVCSLANLISPVRNGAVR — lower, 3.08
- RVRPLARVFSLANLISPVRNGAVR — lower, 2.85
- RVRPLARVHSLANLISPVRNGAVR — lower, 2.75
- RVRPLARVWSLANLISPVRNGAVR — lower, 3.24
- RVRPLARVYSLANLISPVRNGAVR — lower, 3.12
- RVRPLARVTSLANLIPPVRNGAVR — lower, 3.32
- RVRPLARVTSLANLICPVRNGAVR — lower, 1.25
- RVRPLARVTSLANLIAPVRNGAVR — lower, 3.46
- RVRPLARVTSLANLIYPVRNGAVR — lower, 2.66
- RVRPLARVTSLANLITPVRNGAVR — lower, 3.56
- RVRPLARVTSLANLIQPVRNGAVR — lower, 3.76
- RVRPLARVTSLANLIGPVRNGAVR — lower, 3.14
- RVRPLARVTSLANLINPVRNGAVR — lower, 3.23
- RVRPLARVTSLANLIRPVRNGAVR — lower, 3.03
- RVRPLARVTSLANLIKPVRNGAVR — lower, 2.88
- RVRPLARVTSLANLIVPVRNGAVR — lower, 2.99
- RVRPLARVTSLANLIHPVRNGAVR — lower, 2.83
- RVRPLARVTSLANLIMPVRNGAVR — lower, 2.31
- RVRPLARVTSLANLIWPVRNGAVR — lower, 2.55
- RVRPLARVTSLANLIDPVRNGAVR — lower, 2.86
- RVRPLARVTSLANLIFPVRNGAVR — lower, 2.21
- RVRPLARVTSLANLIIPVRNGAVR — lower, 2.44
- RVRPLARVTSLANLILPVRNGAVR — lower, 2.49
- RVRPLARVTSLANLIEPVRNGAVR — lower, 3.15
- RVRPLARVTSLANLVSPVRNGAVR — lower, 3.39
- RVRPLARVTSLANLTSPVRNGAVR — lower, 3.5
- RVRPLARVTSLANLESPVRNGAVR — higher, 4.08
- RVRPLARVTSLANLLSPVRNGAVR — lower, 3.03
- RVRPLARVTSLANLGSPVRNGAVR — lower, 3.6
- RVRPLARVTSLANLNSPVRNGAVR — lower, 3.97
- RVRPLARVTSLANLRSPVRNGAVR — lower, 3.56
- RVRPLARVTSLANLMSPVRNGAVR — lower, 3.29
- RVRPLARVTSLANLKSPVRNGAVR — lower, 3.27
- RVRPLARVTSLANLASPVRNGAVR — higher, 4.27
- RVRPLARVTSLANLCSPVRNGAVR — lower, 2.76
- RVRPLARVTSLANLSSPVRNGAVR — lower, 3.63
- RVRPLARVTSLANLPSPVRNGAVR — lower, 3.31
- RVRPLARVTSLANLFSPVRNGAVR — lower, 2.76
- RVRPLARVTSLANLWSPVRNGAVR — lower, 2.47
- RVRPLARVTSLANLDSPVRNGAVR — lower, 3.65
- RVRPLARVTSLANLQSPVRNGAVR — lower, 3.66
- RVRPLARVTSLANLYSPVRNGAVR — lower, 3.27
- RVRPLARVTSLPNLISPVRNGAVR — higher, 4.28
- RVRPLARVTSLMNLISPVRNGAVR — lower, 2.42
- RVRPLARVTSLYNLISPVRNGAVR — lower, 2.52
- RVRPLARVTSLFNLISPVRNGAVR — lower, 2.14
- RVRPLARVTSLWNLISPVRNGAVR — lower, 1.83
- RVRPLARVTSLSNLISPVRNGAVR — lower, 3.49
- RVRPLARVTSLKNLISPVRNGAVR — lower, 2.94
- RVRPLARVTSLINLISPVRNGAVR — lower, 2.58
- RVRPLARVTSLTNLISPVRNGAVR — lower, 3.89
- RVRPLARVTSLNNLISPVRNGAVR — lower, 2.79
- RVRPLARVTSLQNLISPVRNGAVR — lower, 3.71
- RVRPLARVTSLRNLISPVRNGAVR — lower, 2.64
- RVRPLARVTSLHNLISPVRNGAVR — lower, 3.27
- RVRPLARVTSLDNLISPVRNGAVR — lower, 3.93
- RVRPLARVTSLENLISPVRNGAVR — lower, 3.91
- RVRPLARVTSLCNLISPVRNGAVR — lower, 2.66
- RVRPLARVTSLLNLISPVRNGAVR — lower, 2.77
- RVRPLARVTSLVNLISPVRNGAVR — lower, 2.89
- RVRPLARVTSLATLISPVRNGAVR — lower, 3.11
- RVRPLARVTSLAHLISPVRNGAVR — lower, 2.66
- RVRPLARVTSLAALISPVRNGAVR — lower, 2.75
- RVRPLARVTSLACLISPVRNGAVR — lower, 1.93
- RVRPLARVTSLAMLISPVRNGAVR — lower, 1.92
- RVRPLARVTSLAPLISPVRNGAVR — lower, 3.65
- RVRPLARVTSLARLISPVRNGAVR — lower, 3.33
- RVRPLARVTSLAILISPVRNGAVR — lower, 2.34
- RVRPLARVTSLAELISPVRNGAVR — lower, 3.22
- RVRPLARVTSLASLISPVRNGAVR — lower, 2.65
- RVRPLARVTSLAVLISPVRNGAVR — lower, 2.33
- RVRPLARVTSLALLISPVRNGAVR — lower, 1.98
- RVRPLARVTSLAKLISPVRNGAVR — lower, 2.84
- RVRPLARVTSLAQLISPVRNGAVR — lower, 2.52
- RVRPLARVTSLAGLISPVRNGAVR — lower, 3.05
- RVRPLARVTSLAYLISPVRNGAVR — lower, 1.38
- RVRPLARVTSLAFLISPVRNGAVR — lower, 2.6
- RVRPLARVTSLAWLISPVRNGAVR — lower, 1.72
- RVRPLARVTSLADLISPVRNGAVR — lower, 3.43
- RVRPLARVTILANLISPVRNGAVR — lower, 3.84
- RVRPLARVTWLANLISPVRNGAVR — lower, 1.99
- RVRPLARVTHLANLISPVRNGAVR — lower, 2.54
- RVRPLARVTVLANLISPVRNGAVR — lower, 3.11
- RVRPLARVTCLANLISPVRNGAVR — lower, 1.62
- RVRPLARVTKLANLISPVRNGAVR — lower, 2.41
- RVRPLARVTQLANLISPVRNGAVR — lower, 3.42
- RVRPLARVTMLANLISPVRNGAVR — lower, 1.78
- RVRPLARVTNLANLISPVRNGAVR — lower, 3.08
- RVRPLARVTFLANLISPVRNGAVR — lower, 1.46
- RVRPLARVTGLANLISPVRNGAVR — lower, 2.52
- RVRPLARVTPLANLISPVRNGAVR — lower, 3.01
- RVRPLARVTYLANLISPVRNGAVR — lower, 2.04
- RVRPLARVTRLANLISPVRNGAVR — lower, 3.06
- RVRPLARVTALANLISPVRNGAVR — lower, 2.51
- RVRPLARVTDLANLISPVRNGAVR — lower, 2.54
- RVRPLARVTLLANLISPVRNGAVR — lower, 1.43
- RVRPLARVTELANLISPVRNGAVR — lower, 3
- RVRPLARRTSLANLISPVRNGAVR — lower, 2.92
- RVRPLARITSLANLISPVRNGAVR — lower, 2.38
- RVRPLARWTSLANLISPVRNGAVR — lower, 3.05
- RVRPLARLTSLANLISPVRNGAVR — lower, 2.65
- RVRPLARKTSLANLISPVRNGAVR — lower, 2.6
- RVRPLARCTSLANLISPVRNGAVR — lower, 2.93
- RVRPLARATSLANLISPVRNGAVR — higher, 4.44
- RVRPLARQTSLANLISPVRNGAVR — lower, 2.73
- RVRPLARPTSLANLISPVRNGAVR — lower, 3.1
- RVRPLARYTSLANLISPVRNGAVR — lower, 2.38
- RVRPLARGTSLANLISPVRNGAVR — lower, 2.32
- RVRPLARHTSLANLISPVRNGAVR — lower, 2.49
- RVRPLARMTSLANLISPVRNGAVR — lower, 2.79
- RVRPLARNTSLANLISPVRNGAVR — lower, 2.87
- RVRPLARDTSLANLISPVRNGAVR — lower, 3.63
- RVRPLARTTSLANLISPVRNGAVR — lower, 3.76
- RVRPLARSTSLANLISPVRNGAVR — lower, 3.99
- RVRPLARETSLANLISPVRNGAVR — lower, 3.54
- RVRPLARFTSLANLISPVRNGAVR — lower, 2.28
- RVRPLARVTSNANLISPVRNGAVR — lower, 3.77
- RVRPLARVTSIANLISPVRNGAVR — lower, 2.83
- RVRPLARVTSKANLISPVRNGAVR — lower, 3.21
- RVRPLARVTSVANLISPVRNGAVR — lower, 3.08
- RVRPLARVTSEANLISPVRNGAVR — lower, 3.56
- RVRPLARVTSSANLISPVRNGAVR — lower, 3.14
- RVRPLARVTSQANLISPVRNGAVR — higher, 4.39
- RVRPLARVTSRANLISPVRNGAVR — lower, 3.29
- RVRPLARVTSDANLISPVRNGAVR — lower, 3.24
- RVRPLARVTSYANLISPVRNGAVR — lower, 2.43
- RVRPLARVTSCANLISPVRNGAVR — lower, 2.56
- RVRPLARVTSPANLISPVRNGAVR — lower, 3.96
- RVRPLARVTSGANLISPVRNGAVR — lower, 3.25
- RVRPLARVTSFANLISPVRNGAVR — lower, 3.19
- RVRPLARVTSMANLISPVRNGAVR — lower, 3.45
- RVRPLARVTSAANLISPVRNGAVR — lower, 3.98
- RVRPLARVTSTANLISPVRNGAVR — lower, 3.56
- RVRPLARVTSHANLISPVRNGAVR — lower, 2.94
- RVRPLARVTSWANLISPVRNGAVR — lower, 1.98
- RVRPLARVTSLANLISHVRNGAVR — lower, 2.15
- RVRPLARVTSLANLISDVRNGAVR — lower, 3.03
- RVRPLARVTSLANLISEVRNGAVR — lower, 2.4
- RVRPLARVTSLANLISAVRNGAVR — lower, 2.1
- RVRPLARVTSLANLISGVRNGAVR — lower, 2.14
- RVRPLARVTSLANLISFVRNGAVR — lower, 1.56
- RVRPLARVTSLANLISMVRNGAVR — lower, 2.17
- RVRPLARVTSLANLISIVRNGAVR — lower, 2.24
- RVRPLARVTSLANLISNVRNGAVR — lower, 2.81
- RVRPLARVTSLANLISCVRNGAVR — lower, 3.96
- RVRPLARVTSLANLISKVRNGAVR — lower, 3.09
- RVRPLARVTSLANLISLVRNGAVR — lower, 2.03
- RVRPLAPVTSLANLISPVRNGAVR — lower, 3.81
- RVRPLAVVTSLANLISPVRNGAVR — lower, 2.84
- RVRPLAYVTSLANLISPVRNGAVR — lower, 2.77
- RVRPLAWVTSLANLISPVRNGAVR — lower, 2.79
- RVRPLAQVTSLANLISPVRNGAVR — lower, 3.37
- RVRPLASVTSLANLISPVRNGAVR — lower, 2.78
- RVRPLATVTSLANLISPVRNGAVR — lower, 3.39

— the supplement of paper PMC10567573
